Experiments:
MS2 coat protein [1] = assay: apparent KD of MS2 coat protein, switch ON state; designed switch direction (-1 OFF switch, 1 ON switch): 1; higher = weaker reporter binding; conditions: FMN input: 0 or 200 uM; Eterna round: R93 (includes R88 designs)
How it was run: (§1)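 Designed RNA switches were made by on-chip transcription from Illumina sequencing clusters and then titrated with SNAP-549-labelled MS2 coat protein. Twofold steps ran from 0.7 or 1.5 nM to 3 µM, each lasting 0.8–1.5 h early and 10–20 min late, in 100 mM Tris-HCl pH 7.5, 80 mM KCl, 4 mM MgCl2, without or with constant ligand. Apparent KD is the per-design median of normalised cluster binding-curve fits.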

MS2 coat protein [2] = assay: apparent KD of MS2 coat protein, switch OFF state (with FMN for OFF switches, without FMN for ON switches); designed switch direction (-1 OFF switch, 1 ON switch): 1; higher = weaker reporter binding; conditions: FMN input: 0 or 200 uM; Eterna round: R93 (includes R88 designs)
How it was run: as §1

Sequence | apparent KD of MS2 coat protein (MS2 coat protein [1]) [nM] | apparent KD of MS2 coat protein (MS2 coat protein [2]) [nM]
AUCAGGAAGAGAGAGGAUAUCCAAAGGAAAACAUGAGGAUCACCCAUGUAAAAGGUAGGAAAUUGGGAGAAGGCUCAAGAGAGAG [salish99-ss2-093] | 26.4 | 29.3
AUGAAUAGCAUCGAGGAUAUCCAGUCAUGCACAUGAGGAUCACCCAUGUAAGAGAGAGUAUAAUGGGAGAAGGCGAGUACUCGAU [JR_SS002_Sub1704] | 82 | 69.4
AUGGUCAAGUGUGAGGAUAUCCAGGCUCCCACAUGAGGAUCACCCAUGUUUAUUAGAGCGUAAAGGGAGAAGGUACGAACGCCAU [Esbibiti] | 15.6 | 26.9
AUGGUGCAGGUACAGGAUAUGUUGCUCGUAACAUGAGGAUCACCCAUGUACCUAUGAGAUUAAAUGCAGAAGGGUGCACACCACG [Quorra] | 43.5 | 1480
AUUCCAAAUAGUCAGGAUAUCAAAAAUAAGACAUGAGGAUCACCCAUGUACUUAGUAAAAGUAAAUGAGAAGGGACAGGGUGUAA [JR_SS002_Sub404] | 12.9 | 19.4
CAAACAACAGCACAGGAUAUCCAUAUAAUAACAUGAGGAUCACCCAUGUAAGCGGAAAAUAACGCGGAGAAGGGUGAACACACAA [Default title] | 130 | 35.1
CAUCAACAUGAGGAUCACCCAUGUCAGUGAUGUCAAGGAUAUGGGAGACAUAAAAUUCUUCUAGAAGGUGAAAGAU [Orlaanar] | 209 | 125
CCGAUGGUAUACUAGGAUAUGGGCGCCCUUACAUGAGGAUCACCCAUGUUUACACAAAUCCGCGGCCAGAAGGAGUUCAUGGGAG [Orgere] | 90.3 | 163
CGAAAGGAGAGAGAGGAUAUCCAAAGGAAAACAUGAGGAUCACCCAUGUAGAAGGUAGGAGAUUGGGAGAAGGCUCAAGCUAAAC [salish99-ss2-158] | 40.2 | 37.3
CGAGUACAUGAGGAUCACCCAUGUUAUGAAUUGUCAGGAUAUGGAUAAAGGUGACAUGCGCCAGAAGGGACGUAUG [JR_SS001_Sub1006] | 36.9 | 43.7
CGGAGACAUGAGGAUCACCCAUGUGAGAAGAGGCGAGGAUAUCGAAAAAAAAAAAAAAAACGAGAAGGCGCGAGAC [salish99-SS1-011] | 28.5 | 51.4
CGGAGACAUGAGGAUCACCCAUGUGAGAAGAGGCGAGGAUAUCGAAAGAAAGAAGAGAAACGAGAAGGCGCGAGGA [salish99-SS1-067] | 22.7 | 38.8
CGUGAACAUGAGGAUCACCCAUGUGAAAAACAUAGAGGAUAUGUCACGUGAGUGUAAAAGACAGAAGGCUAUCGUG [Mod 3 of Round 1 starryjess' Mod pf Nando] | 36.5 | 74.1
CUGGACAUAGUAUAGGAUAUAUGAAUAGUUACAUGAGGAUCACCCAUGUGCAUUUAUAUGCGAACAUAGAAGGGUGGUAGUUAAG [Mat - Same state - Malcolm Mod - D141] | 88.4 | 48.4
GAAAAACAUGAGGAUCACCCAUGUAAUACAACGUCAGGAUAUUGAUUUUAUUAUGUAUUGCAAGAAGGGACAAAAG [Mat - Same State 1 - Hyphema mod - D99] | 95.2 | 49.4
GAAAAACAUGAGGAUCACCCAUGUAGAAACUAGGGAGGAUAUACUAAGACGAAAGUCGAAGUAGAAGGCCUUUAAA [Same State 1.4m (Mat - Mod of Eli - )] | 14.2 | 14.7
GAAAAACAUGAGGAUCACCCAUGUAGAAAUAUGGGAGGAUAUACAAACUCGAAAGACAAAGUAGAAGGCCUAAAAG [Garnet 24] | 38.2 | 133
GAAAAACAUGAGGAUCACCCAUGUAGAAAUAUGGGAGGAUAUACAAACUCGAAAGUCAAAGUAGAAGGCCUAAAAG [Garnet 29] | 107 | 224
GAAAAACAUGAGGAUCACCCAUGUAGAAAUAUGGGAGGAUAUACAAAGACGAAAGUCAAAGUAGAAGGCCCAUAAG [Starry Same State 1.6 (mat747 round 1 mod)] | 13.7 | 16.2
GAAAAACAUGAGGAUCACCCAUGUAGAAAUAUGGGAGGAUAUACUAUGACGAAAGUCAAAGUAGAAGGUCUAAAAG [JL S1 M-MoE mod 6 In the Read] | 166 | 125
GAAAAACAUGAGGAUCACCCAUGUAGAGAUAUGGGAGGAUAUACAAAGACGAAAGUCGAGGUAGAAGGCCUAAAAG [Garnet 55] | 24.4 | 116

Sequence | apparent KD of MS2 coat protein (MS2 coat protein [1]) [nM] | apparent KD of MS2 coat protein (MS2 coat protein [2]) [nM]
GAAAAACAUGAGGAUCACCCAUGUCGAGAGAGACGAGGAUAUCUGAAUCGAUUAGAUUACGGAGAAGGCGUGAAAG [Mat - Same State 1 - Hyphema mod - D96] | 20.3 | 25.8
GAAAAACAUGAGGAUCACCCAUGUGAAAACUUGGGAGGAUAUACAAAGACGAAAGUCGAAGUAGAAGGCCUAAAAG [Same State 1.4k (Mat - Mod of Eli - )] | 17.2 | 106
GAAAAACAUGAGGAUCACCCAUGUGAUAACAUGGGAGGAUAUACAUGGACGAUAGUCAAAGUAGAAGGCCUAAAAG [Garnet 62] | 104 | 32.1
GAAAAACAUGAGGAUCACCCAUGUGGAAAUAUGGGAGGAUAUACUAAGACGAAAGUCGAUGUAGAAGGCCUAAAAG [Same State 1.4e (Mat - Mod of Eli - )] | 22 | 82.9
GAAAUACAUGAGGAUCACCCAUGUUAGGUGGGUCAAGGAUAUUAAGGUAAAUAAAAACCUUGAGAAGGUGAAUAAA [JR_SS001_Sub203] | 157 | 239
GAAGACAUAGUUCAGGAUAUAUGAAUAGUCACAUGAGGAUCACCCAUGUGCAUUUAUAUGCGCACAUAGAAGGGAGGUAGUUAUC [SameState2 Malc#24] | 33.6 | 23.5
GAGAAACAUGAGGAUCACCCAUGUAGAAAUAUGGGAGGAUAUACAGAGACGAGAGUCAAAGUAGAAGGCCUAGAAG [77%, Mat - Mod of Eli - With 4 more G's] | 32.1 | 66.1
GAGAGACAUGAGGAUCACCCAUGUAGGAUUAUGGGAGGAUAUACAAAGACGAGAGUCAGAGUAGAAGGCCUAGGAU [salish99-ss1-138(!)] | 21.2 | 54.9
GAGGACGUAGGAUAGGAUAUAUGAAUAAUUACAUGAGGAUCACCCAUGUCCAUUUAUAUGGGAACAUAGAAGGGUUGUGGUUAUC [SameState2 Malc#35] | 446 | 491
GAUAGACAUGAGGAUCACCCAUGUAGAAUUAUGGGAGGAUAUACAAAGACGAGAGUCAGAGUAGAAGGCCUAGGAC [salish99-ss1-159] | 23.6 | 58.6
GAUCCGACUAGUCAGGAUAUCAGGCGUAAGACAUGAGGAUCACCCAUGUCCUAAGAACAAGUAACUGAGAAGGGACAGGGCGACC [JR_SS002_Sub413] | 62.3 | 62.4
GGAAAUAACAGAGAGGAUAUCCAAAGGAAAACAUGAGGAUCACCCAUGUAAAAGGAAGGAAAUUGGGAGAAGGCUCAAAAUAAAU [salish99-ss2-015] | 20.4 | 29.1
GGAACUACAGAUCAGGAUAUGUUUGGGUAAACAUGAGGAUCACCCAUGUGCACCCGAUACACAGGACAGAAGGGAUAACGUGGGA [Maondior] | 15.5 | 20.2
GGGAGGAAGAGAGAGGAUAUCCAAAGGAAAACAUGAGGAUCACCCAUGUAAAAGGUAGGAAAUUGGGAGAAGGCUCAAGAGACCG [salish99-ss2-057] | 34.2 | 37.9
GUAUAUAUAAGACAGGAUAUCCGAAAGUAAACAUGAGGAUCACCCAUGUAAAGAAAGAAACUCAUGGAGAAGGGUCAAUAUAUAC [Mat - Same State 2 - Tesla mod - D83] | 22.2 | 66.7
UAAAAACAUGAGGAUCACCCAUGUAAGAUAAACACAGGAUAUGCGAAAAGAAAGAAAGAAGCAGAAGGGUGAAAAU [Mat - Same State 1 - Tesla mod - 43] | 15.9 | 41.6
UAAAUACAUGAGGAUCACCCAUGUCAAGAGUAUUAAGGAUAUGAACCAGGGAACUGGCAGUCAGAAGGUGAGACUC [Ququeddi] | 235 | 65.2
UAACUACAUGAGGAUCACCCAUGUCUCCAGGGUCAAGGAUAUGGGCGUAGACAAACUACACCAGAAGGUGAUCCAA [Rireenon] | 156 | 307
UACACGCGGGCGCAGGAUAUGUCGCUGGUGACAUGAGGAUCACCCAUGUAUACCAUUGCGGUUGAGCAGAAGGGUGAGACGCGUG [Matimare] | 15.1 | 57.5
UAUUAUUACACGAAGGAUAUCGAUAAUAGUACAUGAGGAUCACCCAUGUUCAUAUCAUUUUAGUUCGAGAAGGUCGAGGGUGAAG [JR_SS002_Sub709] | 23.9 | 20.1
UUAAGCCACGGGCAGGAUAUGUAUUAAAAUACAUGAGGAUCACCCAUGUGCAGGUGUAACACCUGACAGAAGGGCCAAUCGCGGC [Soondi] | 21.5 | 241
